Test results: IntAct's records for PubMed 12591280

B1: Actin nucleation-promoting factor WAS (Homo sapiens), P42768 (parent)
chain: MSGGPMGGRPGGRGAPAVQQNIPSTLLQDHENQRLFEMLGRKCLTLATAVVQLYLALPPGAEHWTKEHCGAVCFVKDNPQKSYFIRLYGLQAGRLLWEQELYSQLVYSTPTPFFHTFAGDDCQAGLNFADEDEAQAFRALVQEKIQKRNQRQSGDRRQLPPPPTPANEERRGGLPPLPLHPGGDQGGPPVGPLSLGLATVDIQNPDITSSRYRGLPAPGPSPADKKRSGKKKISKADIGAPSGFKHVSHVGWDPQNGFDVNNLDPDLRSLFSRAGISEAQLTDAETSKLIYDFIEDQGGLEAVRQEMRRQEPLPPPPPPSRGGNQLPRPPIVGGNKGRSGPLPPVPLGIAPPPPTPRGPPPPGRGGPPPPPPPATGRSGPLPPPPPGAGGPPMPPPPPPPPPPPSSGNGPAPPPLPPALVPAGGLAPGGGRGALLDQIRQGIQLNKTPGAPESSALQPPPQSSEGLVGALMHVMQKRSRAIHSSDEGEDQAGDEDEDDEWDD

Assays:
[1] = variants of: B1; settings: with wipf1_human WIPF1, O43516
Sequence of wipf1_human WIPF1, O43516 (O43516 whole entry): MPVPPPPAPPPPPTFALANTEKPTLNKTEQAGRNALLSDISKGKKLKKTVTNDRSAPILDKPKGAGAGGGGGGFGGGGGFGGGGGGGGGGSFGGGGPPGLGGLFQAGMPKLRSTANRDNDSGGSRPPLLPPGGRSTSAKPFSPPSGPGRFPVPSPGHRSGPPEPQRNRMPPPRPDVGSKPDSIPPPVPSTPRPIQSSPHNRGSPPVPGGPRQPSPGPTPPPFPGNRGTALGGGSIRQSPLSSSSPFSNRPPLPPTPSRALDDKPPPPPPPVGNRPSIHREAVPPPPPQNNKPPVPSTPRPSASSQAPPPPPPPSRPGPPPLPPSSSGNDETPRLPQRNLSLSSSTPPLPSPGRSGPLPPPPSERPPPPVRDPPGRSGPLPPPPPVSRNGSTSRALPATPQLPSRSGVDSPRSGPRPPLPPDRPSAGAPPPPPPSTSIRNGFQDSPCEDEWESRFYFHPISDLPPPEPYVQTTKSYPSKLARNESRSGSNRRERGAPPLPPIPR

[2] = variants of: B1; settings: with wipf1_human WIPF1, O43516; remark: listed apart in the source

Variant | effect of a mutation on the interaction [1] | effect of a mutation on the interaction [2]
R138E | with no effect | increasing interaction strength
R138A | with no effect | increasing interaction strength
R138P | disrupting interaction strength | decreasing interaction strength
A134T | disrupting interaction strength | –
